From PMC9242475

Experiments:
[1] = biological target: HAdV-D37 protein IIIa tagged with C-terminal 3X FLAG (human adenovirus D type 37 (HAdV-D37)); experiment: SPR; […] (80 nM or 2.5 nM) […]
[2] = biological target: HAdV-D37 protein IIIa tagged with C-terminal 3X FLAG (human adenovirus D type 37 (HAdV-D37)); experiment: SPR; BIAcore T200, 25°C, […] (25 mM HEPES, 150 mM NaCl, 0.05% P20, 2 mM DTT, pH 7.4); […]; 1:1 binding model

partial recombinant RANBP2 protein (#ab268915, Abcam) (domain or fragment), sequence (P49792 1346-1815): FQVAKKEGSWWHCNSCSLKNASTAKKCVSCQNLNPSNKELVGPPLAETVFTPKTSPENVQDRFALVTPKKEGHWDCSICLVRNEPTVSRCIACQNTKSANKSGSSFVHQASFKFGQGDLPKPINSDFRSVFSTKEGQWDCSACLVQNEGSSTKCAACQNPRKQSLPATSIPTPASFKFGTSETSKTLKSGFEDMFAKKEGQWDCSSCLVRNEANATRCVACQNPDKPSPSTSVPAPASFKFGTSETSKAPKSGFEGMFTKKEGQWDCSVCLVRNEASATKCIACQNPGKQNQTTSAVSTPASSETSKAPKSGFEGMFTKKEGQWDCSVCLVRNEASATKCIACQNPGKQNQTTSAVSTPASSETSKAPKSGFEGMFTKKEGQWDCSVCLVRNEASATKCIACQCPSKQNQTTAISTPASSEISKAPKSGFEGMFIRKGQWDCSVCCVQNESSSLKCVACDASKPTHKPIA

Substance	Kd [1] [nM]	Kd [2] [nM]	koff [2] [s⁻¹]	kon [2] [M⁻¹ s⁻¹]
partial recombinant RANBP2 protein (#ab268915, Abcam) (domain or fragment)	122	13.7	0.000658	48000
recombinant USP9X protein (#ab271784, Abcam) (from UniProt Q93008 1-2554) (enzyme)	1.8	32	0.00119	37200
